In the oligonucleotide strings, read from the 5' end, every base follows the letter of its sugar. An asterisk marks phosphorothioate; unmarked linkages are phosphodiester. Other units and linkages are bracketed, terminal groups are in braces. A string of capitals states the bases alone. m = 2'-O-methyl; r = 2'-OH (RNA)
Experiments:
PCSK9 gene [1] = assay: PCSK9 gRNA/SpCas9 editing in primary human hepatocytes (Tables 2, 4); assay type: cell-based; settings: SpCas9 mRNA MS002 1:1 by weight; for Human Primary Hepatocyte Editing % 100: 100 ng/RNA/mL; for Human Primary Hepatocyte Editing % 500: 500 ng/RNA/mL; for Human Primary Hepatocyte Editing % 2500: 2500 ng/RNA/mL
In short: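 Primary human hepatocytes co-transfected with PCSK9 gRNA plus SpCas9 mRNA (1:1 by weight) at 2500, 500 or 100 ng RNA/mL, or 2500–250 ng/mL for tracr-modified guides. Editing at the target site read by amplicon next-generation sequencing of extracted genomic DNA.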

PCSK9 gene [2] = assay: PCSK9 gRNA/SpCas9 editing in primary cynomolgus hepatocytes (Tables 2, 22); assay type: cell-based, cynomolgus monkey; settings: SpCas9 mRNA MS002 1:1 by weight; for Cyno Primary Hepatocyte Editing % 100: 100 ng/RNA/mL; for Cyno Primary Hepatocyte Editing % 500: 500 ng/RNA/mL; for Cyno Primary Hepatocyte Editing % 2500: 2500 ng/RNA/mL

B1: GA233: PCSK9 gRNA; protospacer GCGGCTGTACCCACCCGCCA (SEQ ID NO: 227) (nucleic acid)
guide: GCGGCUGUACCCACCCGCCAGUUUUAGAGCUAGAAAUAGCAAGUUAAAAUAAGGCUAGUCCGUUAUCAACUUGAAAAAGUGGCACCGAGUCGGUGCUUUU
modifications: sugars from the 5' end m3 r94 m3, linkages s3 o93 s3 (s phosphorothioate, o phosphodiester), T or U not given here
PCSK9 gene [1]
  Human Primary Hepatocyte Editing % 100: 3.08%
  Human Primary Hepatocyte Editing % 500: 5.39%
  Human Primary Hepatocyte Editing % 2500: 19.97%
PCSK9 gene [2]
  Cyno Primary Hepatocyte Editing % 100: 2.38%
  Cyno Primary Hepatocyte Editing % 500: 10.84%
  Cyno Primary Hepatocyte Editing % 2500: 37.8%

B2: GA247: PCSK9 gRNA; protospacer CCTCGCCAGGCGCTGGCAGG (SEQ ID NO: 240) (nucleic acid)
guide: CCUCGCCAGGCGCUGGCAGGGUUUUAGAGCUAGAAAUAGCAAGUUAAAAUAAGGCUAGUCCGUUAUCAACUUGAAAAAGUGGCACCGAGUCGGUGCUUUU
modifications: sugars from the 5' end m3 r94 m3, linkages s3 o93 s3 (s phosphorothioate, o phosphodiester), T or U not given here
PCSK9 gene [1]
  Human Primary Hepatocyte Editing % 100: 0.25%
  Human Primary Hepatocyte Editing % 500: 0.17%
  Human Primary Hepatocyte Editing % 2500: 6.76%
PCSK9 gene [2]
  Cyno Primary Hepatocyte Editing % 100: 0.71%
  Cyno Primary Hepatocyte Editing % 500: 2.62%
  Cyno Primary Hepatocyte Editing % 2500: 11.48%

B3: GA236: PCSK9 gRNA; protospacer AGCCCTCGCCAGGCGCTGGC (SEQ ID NO: 229) (nucleic acid)
guide: AGCCCUCGCCAGGCGCUGGCGUUUUAGAGCUAGAAAUAGCAAGUUAAAAUAAGGCUAGUCCGUUAUCAACUUGAAAAAGUGGCACCGAGUCGGUGCUUUU
modifications: sugars from the 5' end m3 r94 m3, linkages s3 o93 s3 (s phosphorothioate, o phosphodiester), T or U not given here
PCSK9 gene [1]
  Human Primary Hepatocyte Editing % 100: 6.92%
  Human Primary Hepatocyte Editing % 500: 3.13%
  Human Primary Hepatocyte Editing % 2500: 22.41%
PCSK9 gene [2]
  Cyno Primary Hepatocyte Editing % 100: 2.31%
  Cyno Primary Hepatocyte Editing % 500: 11.62%
  Cyno Primary Hepatocyte Editing % 2500: 37.44%

B4: GA241: PCSK9 gRNA; protospacer TGCTGCTGCCCCTGGCGGGT (SEQ ID NO: 234) (nucleic acid)
guide: UGCUGCUGCCCCUGGCGGGUGUUUUAGAGCUAGAAAUAGCAAGUUAAAAUAAGGCUAGUCCGUUAUCAACUUGAAAAAGUGGCACCGAGUCGGUGCUUUU
modifications: sugars from the 5' end m3 r94 m3, linkages s3 o93 s3 (s phosphorothioate, o phosphodiester), T or U not given here
PCSK9 gene [1]
  Human Primary Hepatocyte Editing % 100: 0.61%
  Human Primary Hepatocyte Editing % 500: 1.49%
  Human Primary Hepatocyte Editing % 2500: 5.39%
PCSK9 gene [2]
  Cyno Primary Hepatocyte Editing % 100: 0.97%
  Cyno Primary Hepatocyte Editing % 500: 2.94%
  Cyno Primary Hepatocyte Editing % 2500: 16.11%

B5: GA162: PCSK9 gRNA; protospacer GGACGGCGACTACGAGGAGC (SEQ ID NO: 156) (nucleic acid)
guide: mG*mG*mA*rCrGrGrCrGrArCrUrArCrGrArGrGrArGrCrGrUrUrUrUrArGrArGrCrUrArGrArArArUrArGrCrArArGrUrUrArArArArUrArArGrGrCrUrArGrUrCrCrGrUrUrArUrCrArArCrUrUrGrArArArArArGrUrGrGrCrArCrCrGrArGrUrCrGrGrUrGrCrU*mU*mU*mU
PCSK9 gene [1]
  Human Primary Hepatocyte Editing % 100: 2.14%
  Human Primary Hepatocyte Editing % 500: 12.97%
  Human Primary Hepatocyte Editing % 2500: 42.8%
PCSK9 gene [2]
  Cyno Primary Hepatocyte Editing % 100: 1.62%
  Cyno Primary Hepatocyte Editing % 500: 11.18%
  Cyno Primary Hepatocyte Editing % 2500: 28.26%

B6: GA245: PCSK9 gRNA; protospacer GTGCTGCTGCCCCTGGCGGG (SEQ ID NO: 238) (nucleic acid)
guide: GUGCUGCUGCCCCUGGCGGGGUUUUAGAGCUAGAAAUAGCAAGUUAAAAUAAGGCUAGUCCGUUAUCAACUUGAAAAAGUGGCACCGAGUCGGUGCUUUU
modifications: sugars from the 5' end m3 r94 m3, linkages s3 o93 s3 (s phosphorothioate, o phosphodiester), T or U not given here
PCSK9 gene [1]
  Human Primary Hepatocyte Editing % 100: 1.68%
  Human Primary Hepatocyte Editing % 500: 2.97%
  Human Primary Hepatocyte Editing % 2500: 2.9%
PCSK9 gene [2]
  Cyno Primary Hepatocyte Editing % 100: 0.19%
  Cyno Primary Hepatocyte Editing % 500: 0.88%
  Cyno Primary Hepatocyte Editing % 2500: 7.07%

B7: GA161: PCSK9 gRNA; protospacer GGACGAGGACGGCGACTACG (SEQ ID NO: 155) (nucleic acid)
guide: mG*mG*mA*rCrGrArGrGrArCrGrGrCrGrArCrUrArCrGrGrUrUrUrUrArGrArGrCrUrArGrArArArUrArGrCrArArGrUrUrArArArArUrArArGrGrCrUrArGrUrCrCrGrUrUrArUrCrArArCrUrUrGrArArArArArGrUrGrGrCrArCrCrGrArGrUrCrGrGrUrGrCrU*mU*mU*mU
PCSK9 gene [1]
  Human Primary Hepatocyte Editing % 100: 3.65%
  Human Primary Hepatocyte Editing % 500: 8.74%
  Human Primary Hepatocyte Editing % 2500: 35.08%
PCSK9 gene [2]
  Cyno Primary Hepatocyte Editing % 100: 4.52%
  Cyno Primary Hepatocyte Editing % 500: 14.98%
  Cyno Primary Hepatocyte Editing % 2500: 48.24%

B8: GA229: PCSK9 gRNA; protospacer GTCGTGCTGGTCACCGCTGC (SEQ ID NO: 223) (nucleic acid)
guide: GUCGUGCUGGUCACCGCUGCGUUUUAGAGCUAGAAAUAGCAAGUUAAAAUAAGGCUAGUCCGUUAUCAACUUGAAAAAGUGGCACCGAGUCGGUGCUUUU
modifications: sugars from the 5' end m3 r94 m3, linkages s3 o93 s3 (s phosphorothioate, o phosphodiester), T or U not given here
PCSK9 gene [1]
  Human Primary Hepatocyte Editing % 100: 0.47%
  Human Primary Hepatocyte Editing % 500: 6.85%
  Human Primary Hepatocyte Editing % 2500: 30.41%
PCSK9 gene [2]
  Cyno Primary Hepatocyte Editing % 100: 0.75%
  Cyno Primary Hepatocyte Editing % 500: 5.39%
  Cyno Primary Hepatocyte Editing % 2500: 34.28%

B9: GA234: PCSK9 gRNA; protospacer CGCCTGCCAGCGCCTGGCGA (SEQ ID NO: 252) (nucleic acid)
guide: mC*mG*mC*rCrUrGrCrCrArGrCrGrCrCrUrGrGrCrGrArGrUrUrUrUrArGrArGrCrUrArGrArArArUrArGrCrArArGrUrUrArArArArUrArArGrGrCrUrArGrUrCrCrGrUrUrArUrCrArArCrUrUrGrArArArArArGrUrGrGrCrArCrCrGrArGrUrCrGrGrUrGrCrU*mU*mU*mU
PCSK9 gene [1]
  Human Primary Hepatocyte Editing % 100: 0.06%
  Human Primary Hepatocyte Editing % 500: 2.29%
  Human Primary Hepatocyte Editing % 2500: 5.45%
PCSK9 gene [2]
  Cyno Primary Hepatocyte Editing % 100: 0.21%
  Cyno Primary Hepatocyte Editing % 500: 1.53%
  Cyno Primary Hepatocyte Editing % 2500: 6.44%

B10: GA237: PCSK9 gRNA; protospacer CAACGCCGCCTGCCAGCGCC (SEQ ID NO: 230) (nucleic acid)
guide: CAACGCCGCCUGCCAGCGCCGUUUUAGAGCUAGAAAUAGCAAGUUAAAAUAAGGCUAGUCCGUUAUCAACUUGAAAAAGUGGCACCGAGUCGGUGCUUUU
modifications: sugars from the 5' end m3 r94 m3, linkages s3 o93 s3 (s phosphorothioate, o phosphodiester), T or U not given here
PCSK9 gene [1]
  Human Primary Hepatocyte Editing % 100: 4.53%
  Human Primary Hepatocyte Editing % 500: 15.83%
  Human Primary Hepatocyte Editing % 2500: 36.78%
PCSK9 gene [2]
  Cyno Primary Hepatocyte Editing % 100: 2.17%
  Cyno Primary Hepatocyte Editing % 500: 13.46%
  Cyno Primary Hepatocyte Editing % 2500: 46.01%

B11: GA239: PCSK9 gRNA; protospacer CCGCCTGCCAGCGCCTGGCG (SEQ ID NO: 232) (nucleic acid)
guide: CCGCCUGCCAGCGCCUGGCGGUUUUAGAGCUAGAAAUAGCAAGUUAAAAUAAGGCUAGUCCGUUAUCAACUUGAAAAAGUGGCACCGAGUCGGUGCUUUU
modifications: sugars from the 5' end m3 r94 m3, linkages s3 o93 s3 (s phosphorothioate, o phosphodiester), T or U not given here
PCSK9 gene [1]
  Human Primary Hepatocyte Editing % 100: 0.06%
  Human Primary Hepatocyte Editing % 500: 1.73%
  Human Primary Hepatocyte Editing % 2500: 3.49%
PCSK9 gene [2]
  Cyno Primary Hepatocyte Editing % 100: 0.02%
  Cyno Primary Hepatocyte Editing % 500: 0.55%
  Cyno Primary Hepatocyte Editing % 2500: 4.55%

B12: GA230: PCSK9 gRNA; protospacer AGTAGAGGCAGGCATCGTCC (SEQ ID NO: 224) (nucleic acid)
guide: AGUAGAGGCAGGCAUCGUCCGUUUUAGAGCUAGAAAUAGCAAGUUAAAAUAAGGCUAGUCCGUUAUCAACUUGAAAAAGUGGCACCGAGUCGGUGCUUUU
modifications: sugars from the 5' end m3 r94 m3, linkages s3 o93 s3 (s phosphorothioate, o phosphodiester), T or U not given here
PCSK9 gene [1]
  Human Primary Hepatocyte Editing % 500: 12.83%
  Human Primary Hepatocyte Editing % 2500: 29.31%
PCSK9 gene [2]
  Cyno Primary Hepatocyte Editing % 2500: 35.86%

B13: GA240: PCSK9 gRNA; protospacer TGCCAGCGCCTGGCGAGGGC (SEQ ID NO: 233) (nucleic acid)
guide: UGCCAGCGCCUGGCGAGGGCGUUUUAGAGCUAGAAAUAGCAAGUUAAAAUAAGGCUAGUCCGUUAUCAACUUGAAAAAGUGGCACCGAGUCGGUGCUUUU
modifications: sugars from the 5' end m3 r94 m3, linkages s3 o93 s3 (s phosphorothioate, o phosphodiester), T or U not given here
PCSK9 gene [1]
  Human Primary Hepatocyte Editing % 100: 1.05%
  Human Primary Hepatocyte Editing % 500: 0.24%
  Human Primary Hepatocyte Editing % 2500: 7.94%
PCSK9 gene [2]
  Cyno Primary Hepatocyte Editing % 100: 0.52%
  Cyno Primary Hepatocyte Editing % 500: 1.9%
  Cyno Primary Hepatocyte Editing % 2500: 10.62%

B14: GA246: PCSK9 gRNA; protospacer GCCAGCGCCTGGCGAGGGCT (SEQ ID NO: 239) (nucleic acid)
guide: GCCAGCGCCUGGCGAGGGCUGUUUUAGAGCUAGAAAUAGCAAGUUAAAAUAAGGCUAGUCCGUUAUCAACUUGAAAAAGUGGCACCGAGUCGGUGCUUUU
modifications: sugars from the 5' end m3 r94 m3, linkages s3 o93 s3 (s phosphorothioate, o phosphodiester), T or U not given here
PCSK9 gene [1]
  Human Primary Hepatocyte Editing % 100: 0.08%
  Human Primary Hepatocyte Editing % 500: 2.17%
  Human Primary Hepatocyte Editing % 2500: 17.95%
PCSK9 gene [2]
  Cyno Primary Hepatocyte Editing % 100: 1.11%
  Cyno Primary Hepatocyte Editing % 500: 5.78%
  Cyno Primary Hepatocyte Editing % 2500: 24.63%

Reference: patent publication US20250152746A1, “BASE EDITING OF ANGPTL3 AND METHODS OF USING SAME FOR TREATMENT OF DISEASE” (Verve Therapeutics, Inc., priority 2020, published 2025)
